Experimental findings from CN112125972A (SINOCELLTECH LTD, dated 2020) are described below.

Assay in all cases: indirect ELISA, VLP coated at 2 μg/mL, antibody at 10 ng/mL
A general note: ELISA stands for enzyme-linked immunosorbent assay.

In one experiment the target is T1, HPV33 VLP (Human papillomavirus type 33, UniProt P06416 1-499).
T1 construct: also called HPV33完整VLP蛋白
T1 sequence: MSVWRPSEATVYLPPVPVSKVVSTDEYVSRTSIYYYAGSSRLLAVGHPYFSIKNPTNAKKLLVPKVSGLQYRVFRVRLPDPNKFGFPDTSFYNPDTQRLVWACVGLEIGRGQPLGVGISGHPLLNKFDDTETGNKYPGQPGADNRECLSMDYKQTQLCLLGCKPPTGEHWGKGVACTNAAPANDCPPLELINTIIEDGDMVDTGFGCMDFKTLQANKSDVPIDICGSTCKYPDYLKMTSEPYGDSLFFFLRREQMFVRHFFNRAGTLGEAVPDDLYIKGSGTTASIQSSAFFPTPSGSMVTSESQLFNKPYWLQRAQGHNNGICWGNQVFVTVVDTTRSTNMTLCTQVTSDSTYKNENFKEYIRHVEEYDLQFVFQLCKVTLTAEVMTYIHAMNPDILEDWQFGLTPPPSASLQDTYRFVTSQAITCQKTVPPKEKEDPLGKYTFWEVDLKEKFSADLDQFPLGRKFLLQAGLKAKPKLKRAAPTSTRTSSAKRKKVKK

For a further experiment, the target named is T2, HPV16 L1 VLP蛋白 (Human papillomavirus type 16).
T2 construct: Intact virus-like particle of L1; also called HPV16 VLP; HPV16 VLP蛋白

The next experiment deals with T3, HPV59 VLP (Human papillomavirus type 59).
T3 construct: also called HPV59完整VLP蛋白

Another experiment has as its target T4, HPV56 VLP (Human papillomavirus type 56, UniProt P36743 36-534).
T4 construct: also called HPV56完整VLP蛋白
T4 sequence: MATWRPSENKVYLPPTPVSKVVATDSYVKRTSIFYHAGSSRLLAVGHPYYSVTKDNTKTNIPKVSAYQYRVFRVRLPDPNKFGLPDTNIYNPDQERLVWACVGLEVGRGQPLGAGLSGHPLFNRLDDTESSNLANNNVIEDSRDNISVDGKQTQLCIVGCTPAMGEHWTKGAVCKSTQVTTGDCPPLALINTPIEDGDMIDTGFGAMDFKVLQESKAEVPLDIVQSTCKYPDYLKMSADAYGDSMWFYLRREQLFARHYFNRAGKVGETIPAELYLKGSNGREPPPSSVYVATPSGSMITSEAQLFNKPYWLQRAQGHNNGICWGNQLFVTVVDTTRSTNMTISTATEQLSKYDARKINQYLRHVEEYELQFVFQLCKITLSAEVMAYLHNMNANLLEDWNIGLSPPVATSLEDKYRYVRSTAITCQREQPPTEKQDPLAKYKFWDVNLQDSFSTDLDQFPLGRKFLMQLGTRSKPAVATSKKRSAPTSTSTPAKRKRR

A further experiment concerns the target T5, HPV6 VLP (Human papillomavirus type 6, UniProt P69899 1-500).
T5 construct: also called HPV6完整VLP蛋白
T5 sequence: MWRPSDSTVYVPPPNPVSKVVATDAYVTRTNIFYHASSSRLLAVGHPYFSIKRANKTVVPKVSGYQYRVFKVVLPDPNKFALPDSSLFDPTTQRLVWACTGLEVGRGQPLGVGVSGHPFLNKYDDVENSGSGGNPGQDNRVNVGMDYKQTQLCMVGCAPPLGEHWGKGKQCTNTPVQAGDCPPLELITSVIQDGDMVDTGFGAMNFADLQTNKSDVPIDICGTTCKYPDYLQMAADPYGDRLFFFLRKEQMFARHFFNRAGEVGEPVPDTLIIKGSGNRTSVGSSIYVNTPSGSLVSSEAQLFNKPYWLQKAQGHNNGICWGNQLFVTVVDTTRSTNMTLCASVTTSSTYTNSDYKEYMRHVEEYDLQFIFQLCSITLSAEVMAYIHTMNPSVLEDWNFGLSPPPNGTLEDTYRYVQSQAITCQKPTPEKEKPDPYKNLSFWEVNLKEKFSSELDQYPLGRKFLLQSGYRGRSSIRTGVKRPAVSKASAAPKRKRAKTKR

A further experiment has as its target T6, HPV35 VLP (Human papillomavirus type 35, UniProt P27232 1-502).
T6 construct: also called HPV35完整VLP蛋白
T6 sequence: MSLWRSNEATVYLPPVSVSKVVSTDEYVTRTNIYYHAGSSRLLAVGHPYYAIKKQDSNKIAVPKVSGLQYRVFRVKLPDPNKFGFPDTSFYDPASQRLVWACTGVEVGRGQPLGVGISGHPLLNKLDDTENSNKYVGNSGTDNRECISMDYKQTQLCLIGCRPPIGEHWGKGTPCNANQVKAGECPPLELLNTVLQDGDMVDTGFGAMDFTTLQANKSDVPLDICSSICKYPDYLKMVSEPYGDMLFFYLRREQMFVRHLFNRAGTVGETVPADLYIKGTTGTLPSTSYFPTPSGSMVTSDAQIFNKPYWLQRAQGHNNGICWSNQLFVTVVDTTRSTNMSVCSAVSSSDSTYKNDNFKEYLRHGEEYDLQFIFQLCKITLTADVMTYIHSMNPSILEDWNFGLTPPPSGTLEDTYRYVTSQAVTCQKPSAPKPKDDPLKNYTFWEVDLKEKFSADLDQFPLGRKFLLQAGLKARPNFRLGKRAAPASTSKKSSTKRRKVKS

B1: HPV 16 R001 (antibody, V domains shown)
VH: QSVKESEGRLVTPGTPLTLTCTASGFTMSRYHMTWVRQAPGKGLEWIGIIYARNSDTYYANWAKGRFTISKTSTTVDLKITSPTIEDTATYFCARVDSDSSGAFDRLDLWGQGTLVTVSS
VL: DPMLTQTAASVEVAVGGTVTIKCQASQSIGGYLSWYQQKPGQRPKLLIYRASTLASGVPSRFKGSGSGTEYTLTFSGVECADAAAYYCQQGYTSSDINNAFGGGTEVVVK
notes: An HRP-labelled form served as detection antibody in the sandwich ELISA; also called HPV16.001; 单克隆抗体HPV 16 R001
For the molecule B1, the OD450-blank with HPV33 VLP amounted to 0.001 OD450; with HPV16 L1 VLP蛋白 it was 2.53 OD450; in the experiment with HPV59 VLP, 0 OD450; with HPV56 VLP, 0.003 OD450; with HPV6 VLP it was 0.004 OD450; with HPV35 VLP, 0.001 OD450.
